The results in this text go back to publication PMC8920075.

Usually EC50 stands for the concentration at which the effect is half-maximal. Low values mean an effect from little substance, high ones a need for much substance.

This assay addresses Omikron (Botswana, B.1.1.529) RBD (SARS-CoV-2 (Omicron, B.1.1.529)) (UniProt P0DTC2). Put plainly: ELISA. For orientation: An ELISA detects its analyte on a solid surface through an enzyme-linked reagent.

With REGN10933 (Casirivimab) (antibody), the 50% effective concentration (EC50) came out at 39.4 nM.
